Source: patent US20220411483A1 (Chugai, published 2022)
Positions count from the first letter of the chain named. Numbers in names are those of the source. Like-named read-outs stand apart in the source and are kept apart here.

T1: mouse FcγRI (mouse, UniProt P26151 25-297, limits assumed)
T1 construct: also called mFcγRI; mFc γ RI
T1 sequence (looked up): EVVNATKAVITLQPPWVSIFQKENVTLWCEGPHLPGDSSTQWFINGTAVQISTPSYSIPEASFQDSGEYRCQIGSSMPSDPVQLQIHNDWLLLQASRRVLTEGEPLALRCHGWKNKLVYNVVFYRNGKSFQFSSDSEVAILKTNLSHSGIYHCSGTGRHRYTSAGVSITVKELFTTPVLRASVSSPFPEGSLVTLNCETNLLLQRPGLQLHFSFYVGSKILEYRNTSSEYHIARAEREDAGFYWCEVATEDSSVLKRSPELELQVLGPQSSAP

T2: mouse FcγRIV (mouse, UniProt A0A0B4J1G0 21-203)
T2 construct: also called mFcγRIV; mFc γ RIV
T2 sequence: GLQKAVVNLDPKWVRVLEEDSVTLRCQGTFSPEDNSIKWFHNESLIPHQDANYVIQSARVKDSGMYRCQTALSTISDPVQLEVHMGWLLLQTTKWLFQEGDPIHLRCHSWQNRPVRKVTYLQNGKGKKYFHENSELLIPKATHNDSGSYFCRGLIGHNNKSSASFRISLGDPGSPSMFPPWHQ

T3: FcγRIIa R type extracellular domain with C-terminal His tag (human, UniProt P12318 34-217)
T3 construct: extracellular domain; also called FcgRIIaR; not shown: His tag at the C terminus
T3 sequence (looked up): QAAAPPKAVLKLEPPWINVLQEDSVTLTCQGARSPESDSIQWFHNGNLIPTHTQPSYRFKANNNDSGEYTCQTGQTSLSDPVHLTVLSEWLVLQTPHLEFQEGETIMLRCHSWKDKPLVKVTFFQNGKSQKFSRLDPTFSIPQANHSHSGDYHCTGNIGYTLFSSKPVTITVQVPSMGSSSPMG

T4: FcγRIIb extracellular domain with C-terminal His tag (human, UniProt P31994 43-217)
T4 construct: extracellular domain; also called FcgRIIb; not shown: His tag at the C terminus
T4 sequence (looked up): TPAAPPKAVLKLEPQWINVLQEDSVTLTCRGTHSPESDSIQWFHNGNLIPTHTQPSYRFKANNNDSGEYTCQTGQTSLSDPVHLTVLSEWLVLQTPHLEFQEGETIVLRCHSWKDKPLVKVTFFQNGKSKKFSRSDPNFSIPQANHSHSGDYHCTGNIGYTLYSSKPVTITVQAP

T5: FcgRIIaR (human, UniProt P12318 34-217)
T5 construct: extracellular domain; also called FcγRIIa R type; FcγRIIa (R type)
T5 sequence (looked up): T3 sequence (looked up)

T6: FcgRIIaH (human, UniProt P12318 34-217)
T6 construct: extracellular domain; also called FcγRIIa H type
T6 sequence (looked up): T3 sequence (looked up) with R134H

T7: FcgRIIb (human, UniProt P31994 43-217)
T7 construct: extracellular domain; also called FcγRIIb
T7 sequence (looked up): T4 sequence (looked up)

B1: VH3/L (WT)-mIgG1-mF44 (antibody)
heavy: QVQLQESGPGLVKPSETLSLTCAVSGHSISHDHAWSWVRQPPGEGLEWIGFISYSGITNYNPSLQGRVTISRDNSKNTLYLQMNSLRAEDTAVYYCARSLARTTAMDYWGEGTLVTVSSAKTTPPSVYPLAPGSAAQTNSMVTLGCLVKGYFPEPVTVTWNSGSLSSGVHTFPAVLQSDLYTLSSSVTVPSSTWPSETVTCNVAHPASSTKVDKKIVPRDCGCKPCICTVPEVSSVFIFPPKPKDVLTITLTPKVTCVVVDISKDDPEVQFSWFVDDVEVHTAQTQPREEQFNSTFRSVSELPIMHQDWLNGKEFKCRVNSADFPAPIEKTISKTKGRPKAPQVYTIPPPKEQMAKDKVSLTCMITDFFPEDITVEWQWNGQPAENYKNTQPIMDTDGSYFVYSKLNVQKSNWEAGNTFTCSVLHEGLHNHHTEKSLSHSPGK
light: not shown
B2: VH3/L (WT)-mIgG1 (antibody)
heavy: B1 heavy with D323A
light: not shown
notes: mouse IgG1 constant region
B3: VH3/L (WT)-mIgG1-mF46 (antibody)
heavy: B1 heavy with S235D
light: not shown
B4: IL6R-P587/IL6R-L (antibody, human IgG1, kappa)
heavy: QVQLQESGPGLVKPSETLSLTCAVSGHSISHDHAWSWVRQPPGEGLEWIGFISYSGITNYNPSLQGRVTISRDNSKNTLYLQMNSLRAEDTAVYYCARSLARTTAMDYWGEGTLVTVSSASTKGPSVFPLAPSSKSTSGGTAALGCLVKDYFPEPVTVSWNSGALTSGVHTFPAVLQSSGLYSLSSVVTVPSSSLGTQTYICNVNHKPSNTKVDKKVEPKSCDKTHTCPPCPAPDLLGGDSVFLFPPKPKDTLMISRTPEVTCVVIDVAEEDGEVKFNWYVDGVEVHNAKTKPREEQYNSTYRVVSVLTVLHQDWLNGKEYKCKVSNKALPAPIEKTISKAKGQPREPQVYTLPPSRDELTKNQVSLTCLVKGFYPSDIAVEWESNGQPENNYKTTPPVLDSDGSFFLYSKLTVDKSRWQQGNVFSCSVMHEALHNHYTQKSLSLSP
light: not shown
notes: human IgG1
B5: IL6R-P730/IL6R-L (antibody, human IgG1, kappa)
heavy: B4 heavy with G239Q, A269R, E270P, Y298E
light: not shown
B6: IL6R-P694/IL6R-L (antibody, human IgG1, kappa)
heavy: B4 heavy with A269R, Y298E
light: not shown
B7: IL6R-P699/IL6R-L (antibody, human IgG1, kappa)
heavy: B4 heavy with A269R, E270P
light: not shown
notes: Printed H238P read as H268P
B8: IL6R-P665/IL6R-L (antibody, human IgG1, kappa)
heavy: B4 heavy with G239D, Y298D, N299A, A332R, P398M
light: not shown
notes: also called IL6R-P665/1L6R-L
B9: IL6R-P712/IL6R-L (antibody, human IgG1, kappa)
heavy: B4 heavy with A269R, E270P, Y298E
light: not shown
B10: IL6R-P652/IL6R-L (antibody, human IgG1, kappa)
heavy: B4 heavy with G239D, A269Y, Y298D, A332R, P398M
light: not shown
B11: IL6R-P702/IL6R-L (antibody, human IgG1, kappa)
heavy: B4 heavy with F243M, A269R
light: not shown

Assays:
mouse FcγRI = target: T1, mouse FcγRI; experiment: SPR (Biacore), method of Reference Example 2
Description: (§1) The binding activities of these antibodies to the mouse FcγRs were evaluated by the method of Reference Example 2.

mouse FcγRIV = target: T2, mouse FcγRIV; experiment: SPR (Biacore), method of Reference Example 2
Description: as §1

[1] = target: T3, FcγRIIa R type extracellular domain …; experiment: SPR; ratio of KD values, reference IL6R-G1d/IL6R-L
[2] = target: T4, FcγRIIb extracellular domain with …; experiment: SPR; ratio of KD values, reference IL6R-G1d/IL6R-L
FcgRIa [3] = target: T8, FcgRIa (human, UniProt P12314 16-292); experiment: SPR (Biacore)
T8 construct: also called FcγRIa; FcγRI

FcgRIIaR [4] = target: T5, FcgRIIaR; experiment: SPR (Biacore)
FcgRIIaH [5] = target: T6, FcgRIIaH; experiment: SPR (Biacore)
FcgRIIb [6] = target: T7, FcgRIIb; experiment: SPR (Biacore)
FcgRIIIaV [7] = target: T9, FcgRIIIaV (human, UniProt P08637 17-208); experiment: SPR (Biacore)
T9 construct: extracellular domain; also called FcγRIIIa V type

FcgRIa [8] = target: T8, FcgRIa; experiment: SPR (Biacore); remark: listed apart in the source
FcgRIIaR [9] = target: T5, FcgRIIaR; experiment: SPR (Biacore); remark: listed apart in the source
FcgRIIaH [10] = target: T6, FcgRIIaH; experiment: SPR (Biacore); remark: listed apart in the source
FcgRIIb [11] = target: T7, FcgRIIb; experiment: SPR (Biacore); remark: listed apart in the source
FcgRIIIaV [12] = target: T9, FcgRIIIaV; experiment: SPR (Biacore); remark: listed apart in the source
FcgRIIaR [13] = target: T5, FcgRIIaR; experiment: SPR, amount bound per captured antibody
FcgRIIb [14] = target: T7, FcgRIIb; experiment: SPR, amount bound per captured antibody

T9 sequence (P08637 17-208 F176V): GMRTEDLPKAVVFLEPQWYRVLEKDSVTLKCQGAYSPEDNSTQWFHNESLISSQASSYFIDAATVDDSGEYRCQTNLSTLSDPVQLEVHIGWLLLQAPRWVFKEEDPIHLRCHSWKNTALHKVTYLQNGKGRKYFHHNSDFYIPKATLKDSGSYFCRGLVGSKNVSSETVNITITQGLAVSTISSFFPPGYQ
T8 sequence (P12314 16-292): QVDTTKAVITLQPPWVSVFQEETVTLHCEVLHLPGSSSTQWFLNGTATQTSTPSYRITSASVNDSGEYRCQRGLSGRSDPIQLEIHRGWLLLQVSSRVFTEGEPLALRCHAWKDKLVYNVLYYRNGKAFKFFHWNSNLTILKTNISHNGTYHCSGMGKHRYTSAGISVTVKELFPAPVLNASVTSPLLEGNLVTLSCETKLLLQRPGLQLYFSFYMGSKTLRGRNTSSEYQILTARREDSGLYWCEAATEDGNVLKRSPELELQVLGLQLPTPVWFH

| Binder | Relative FcgRIa-binding Activity (FcgRIa [3]) | Relative FcgRIIaR-binding Activity (FcgRIIaR [4]) | Relative FcgRIIaH-binding Activity (FcgRIIaH [5]) | Relative FcgRIIb-binding Activity (FcgRIIb [6]) | Relative FcgRIIIaV-binding Activity (FcgRIIIaV [7]) | other results |
| --- | --- | --- | --- | --- | --- | --- |
| B1 |  |  |  |  |  | binding result (mouse FcγRI): no binding; binding result (mouse FcγRIV): no binding |
| B2 |  |  |  |  |  | binding result (mouse FcγRI): no binding; binding result (mouse FcγRIV): no binding |
| B3 |  |  |  |  |  | binding result (mouse FcγRI): no binding; binding result (mouse FcγRIV): no binding |
| B4 |  |  |  |  |  | KD of G1d for FcgRIIaR/KD of Each Variant for FcgRIIaR [1]: 1.4; KD of G1d for FcgRIIb/KD of Each Variant for FcgRIIb [2]: 256 |
| B5 | 0.0002 KD(G1d)/KD(variant) | 0.013 KD(G1d)/KD(variant) | 0.003 KD(G1d)/KD(variant) | 0.504 KD(G1d)/KD(variant) | 0.005 KD(G1d)/KD(variant) |  |
| B6 | 0.0008 KD(G1d)/KD(variant) | 0.02 KD(G1d)/KD(variant) | 0.005 KD(G1d)/KD(variant) | 1.83 KD(G1d)/KD(variant) | 0.007 KD(G1d)/KD(variant) |  |
| B7 | 0.0005 KD(G1d)/KD(variant) | 0.022 KD(G1d)/KD(variant) | 0.004 KD(G1d)/KD(variant) | 1.26 KD(G1d)/KD(variant) | 0.005 KD(G1d)/KD(variant) |  |
| B8 |  |  |  |  |  | Relative FcgRIa-binding Activity (FcgRIa [8]): 0.0002 KD(G1d)/KD(variant); Relative FcgRIIaR-binding Activity (FcgRIIaR [9]): 0.025 KD(G1d)/KD(variant); Relative FcgRIIaH-binding Activity (FcgRIIaH [10]): 0.002 KD(G1d)/KD(variant); Relative FcgRIIb-binding Activity (FcgRIIb [11]): 1.6 KD(G1d)/KD(variant); Relative FcgRIIIaV-binding Activity (FcgRIIIaV [12]): 0.005 KD(G1d)/KD(variant); Relative FcgRIIaR-binding Activity (FcgRIIaR [13]): 15 IL6R-G1d/IL6R-L=100; Relative FcgRIIb-binding Activity (FcgRIIb [14]): 121 IL6R-G1d/IL6R-L=100 |
| B9 | 0.0005 KD(G1d)/KD(variant) | 0.017 KD(G1d)/KD(variant) | 0.003 KD(G1d)/KD(variant) | 1.52 KD(G1d)/KD(variant) | 0.004 KD(G1d)/KD(variant) |  |
| B10 |  |  |  |  |  | Relative FcgRIa-binding Activity (FcgRIa [8]): 0.0005 KD(G1d)/KD(variant); Relative FcgRIIaR-binding Activity (FcgRIIaR [9]): 0.051 KD(G1d)/KD(variant); Relative FcgRIIaH-binding Activity (FcgRIIaH [10]): 0.006 KD(G1d)/KD(variant); Relative FcgRIIb-binding Activity (FcgRIIb [11]): 4.18 KD(G1d)/KD(variant); Relative FcgRIIIaV-binding Activity (FcgRIIIaV [12]): 0.005 KD(G1d)/KD(variant); Relative FcgRIIaR-binding Activity (FcgRIIaR [13]): 27.5 IL6R-G1d/IL6R-L=100; Relative FcgRIIb-binding Activity (FcgRIIb [14]): 149 IL6R-G1d/IL6R-L=100 |
| B11 | 0.0006 KD(G1d)/KD(variant) | 0.023 KD(G1d)/KD(variant) | 0.006 KD(G1d)/KD(variant) | 1.27 KD(G1d)/KD(variant) | 0.008 KD(G1d)/KD(variant) |  |
